{"source": "patent US20230227545A1", "about": "(published 2023)", "binders": {"B1": {"name": "08F17A (antibody, human IgG1, kappa, V domains shown)", "VH": "EVQLVESGGGLVTPGGSLRLSCAASGFTFSGYSMNWVRQAPGKGLEWVSSISSSSGYIYYADSVKGRFTISRDNAKNSLYLQMNSLRAEDTAVYYCAREYWGSGFDYWGQGTLVTVSS", "VL": "DIQMTQSPSSLSASVGDRVTITCRASQGISYYLAWYQQKPGKVPKLLISAEFTLQSGVPSRFSGSGSGTDFTLTISSLQPEDVATYYCQKYNTAPRTFGQGTKVEIKR", "notes": "Kappa light chain; also called 08F17A (anti-IL-1β) mAb [IgG1: YTE]"}}, "key": {"[1]": {"target": "T1, cynomolgus IL-1β (cynomolgus macaque, UniProt P79182 117-268)", "T1 sequence (looked up)": "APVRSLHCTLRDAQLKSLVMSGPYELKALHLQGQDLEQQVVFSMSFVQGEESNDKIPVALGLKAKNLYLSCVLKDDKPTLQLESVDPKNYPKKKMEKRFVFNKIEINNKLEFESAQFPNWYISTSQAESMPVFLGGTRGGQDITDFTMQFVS", "assay": "cell-based or functional assay"}, "[2]": {"target": "T2, mouse IL-1β (mouse, UniProt P10749 118-269)", "T2 construct": "also called mouse IL-β", "T2 sequence (looked up)": "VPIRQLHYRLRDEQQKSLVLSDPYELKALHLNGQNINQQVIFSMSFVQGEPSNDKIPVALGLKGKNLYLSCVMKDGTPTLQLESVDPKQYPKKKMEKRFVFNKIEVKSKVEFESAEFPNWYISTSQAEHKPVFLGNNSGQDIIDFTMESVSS", "assay": "SPR, Biacore 8K, mAb captured on anti-human Fc chip, soluble IL-1β as analyte", "procedure": "(§1) Affinity assessment of 05H21A, 15N14A, and 08F17A against human IL-1β was performed by Surface Plasmon Resonance (SPR) using a Biacore 8k. Cross-reactivity of the same antibody panel was also assessed against cyno, mouse, rat and pig IL-1β.\n(§2) SPR is a label-free technique to study the strength of an interaction between two binding partners by measuring the change in mass upon complex formation and dissociation. Briefly, antibodies were immobilized on a sensor chip which was coupled with goat anti-human Fc (GAH-Fc C1 sensor chip). Soluble IL-1β was flowed over the immobilized antibody and association/dissociation responses were monitored. Kinetic information (on-rate and off-rate constants) were extracted by fitting sensorgrams to the 1:1 Langmuir model. Binding affinity (KD) were reported as the ratio of rate constants (koff/kₒₙ)."}, "[3]": {"target": "T3, rat IL-1β (rat, UniProt Q63264 117-268)", "T3 construct": "also called rat IL-β", "T3 sequence (looked up)": "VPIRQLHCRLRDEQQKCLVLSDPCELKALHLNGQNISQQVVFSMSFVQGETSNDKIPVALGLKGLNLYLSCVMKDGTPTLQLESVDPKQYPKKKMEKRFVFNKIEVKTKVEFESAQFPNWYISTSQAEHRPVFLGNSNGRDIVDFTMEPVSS", "assay": "SPR, Biacore 8K, mAb captured on anti-human Fc chip, soluble IL-1β as analyte", "procedure": "as §1, §2"}, "[4]": {"target": "T4, pig IL-1β (pig, UniProt P26889 115-267)", "T4 construct": "also called pig IL-β", "T4 sequence (looked up)": "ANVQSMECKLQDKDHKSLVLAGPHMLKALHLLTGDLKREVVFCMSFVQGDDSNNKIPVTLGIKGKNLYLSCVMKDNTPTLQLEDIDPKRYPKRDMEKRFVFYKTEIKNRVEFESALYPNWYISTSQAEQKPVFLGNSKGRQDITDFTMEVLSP", "assay": "SPR, Biacore 8K, mAb captured on anti-human Fc chip, soluble IL-1β as analyte", "procedure": "as §1, §2"}, "[5]": {"target": "T1, cynomolgus IL-1β", "assay": "SPR, Biacore 8K, mAb captured on goat anti-human Fc C1 chip, soluble IL-1β as analyte, 1:1 Langmuir fit", "procedure": "as §1, §2"}, "[6]": {"target": "T5, human IL-1β (human, UniProt P01584 117-269)", "T5 construct": "also called hIL-1β; rhIL-1β", "assay": "SPR, Biacore 8K, mAb captured on goat anti-human Fc C1 chip, soluble IL-1β as analyte, 1:1 Langmuir fit", "procedure": "as §1, §2"}, "[7]": {"target": "T5, human IL-1β", "assay": "cell-based or functional assay"}, "[8]": {"target": "T5, human IL-1β", "assay": "cell-based or functional assay", "remark": "listed apart in the source"}, "[9]": {"target": "T5, human IL-1β", "assay": "cell-based or functional assay", "remark": "listed apart in the source"}}}
{"binder": "B1", "values": [{"measurement": "IC30, inhibition of G-CSF release, cynomolgus lung fibroblasts (CLF), 15 pM rcynoIL-1β", "setting": "[1]", "value": 3.58, "unit": "nM"}, {"measurement": "IC30, inhibition of IL-6 release, cynomolgus dermal fibroblasts (CDF), 5 pM rcynoIL-1β", "setting": "[1]", "value": 2.72, "unit": "nM"}, {"measurement": "IC30, inhibition of IL-6 release, cynomolgus lung fibroblasts (CLF), 15 pM rcynoIL-1β", "setting": "[1]", "value": 3.44, "unit": "nM"}, {"measurement": "IC50, inhibition of G-CSF release, cynomolgus dermal fibroblasts (CDF), 5 pM rcynoIL-1β", "setting": "[1]", "value": 3.24, "unit": "nM"}, {"measurement": "IC50, inhibition of G-CSF release, cynomolgus lung fibroblasts (CLF), 15 pM rcynoIL-1β", "setting": "[1]", "value": 6.11, "unit": "nM"}, {"measurement": "IC50, inhibition of IL-6 release, cynomolgus dermal fibroblasts (CDF), 5 pM rcynoIL-1β", "setting": "[1]", "value": 5.1, "unit": "nM"}, {"measurement": "IC50, inhibition of IL-6 release, cynomolgus lung fibroblasts (CLF), 15 pM rcynoIL-1β", "setting": "[1]", "value": 6.97, "unit": "nM"}, {"measurement": "IC90, inhibition of G-CSF release, cynomolgus lung fibroblasts (CLF), 15 pM rcynoIL-1β", "setting": "[1]", "value": 24.3, "unit": "nM"}, {"measurement": "IC90, inhibition of IL-6 release, cynomolgus dermal fibroblasts (CDF), 5 pM rcynoIL-1β", "setting": "[1]", "value": 25.9, "unit": "nM"}, {"measurement": "IC90, inhibition of IL-6 release, cynomolgus lung fibroblasts (CLF), 15 pM rcynoIL-1β", "setting": "[1]", "value": 43.6, "unit": "nM"}, {"measurement": "binding result", "setting": "[2]", "value": "no binding"}, {"measurement": "binding result", "setting": "[3]", "value": "no binding"}, {"measurement": "binding result", "setting": "[4]", "value": "no binding"}, {"measurement": "Kd", "setting": "[5]", "value": 1.71, "unit": "nM"}, {"measurement": "koff", "setting": "[5]", "value": 0.000295, "unit": "s⁻¹"}, {"measurement": "kon", "setting": "[5]", "value": 172000, "unit": "M⁻¹ s⁻¹"}, {"measurement": "Kd", "setting": "[6]", "value": 0.18, "unit": "nM"}, {"measurement": "IC30, inhibition of IL-6 release, human PBMCs (n=5 donors), 10 pM rhIL-1β", "setting": "[7]", "value": 52, "unit": "pM"}, {"measurement": "IC30, inhibition of IL-6 release, human PBMCs (n=5 donors), 30 pM rhIL-1β", "setting": "[7]", "value": 0.156, "unit": "nM"}, {"measurement": "IC50, inhibition of IL-6 release, human PBMCs (n=5 donors), 10 pM rhIL-1β", "setting": "[7]", "value": 92, "unit": "pM"}, {"measurement": "IC50, inhibition of IL-6 release, human PBMCs (n=5 donors), 30 pM rhIL-1β", "setting": "[7]", "value": 0.241, "unit": "nM"}, {"measurement": "IC90, inhibition of IL-6 release, human PBMCs (n=5 donors), 10 pM rhIL-1β", "setting": "[7]", "value": 0.402, "unit": "nM"}, {"measurement": "IC90, inhibition of IL-6 release, human PBMCs (n=5 donors), 30 pM rhIL-1β", "setting": "[7]", "value": 0.744, "unit": "nM"}, {"measurement": "IC30, inhibition of rhIL-1β-induced cytokine release, NHDF donor 29114", "setting": "[8]", "value": 0.087, "unit": "nM"}, {"measurement": "IC30, inhibition of rhIL-1β-induced cytokine release, NHLF donor 34325", "setting": "[8]", "value": 0.127, "unit": "nM"}, {"measurement": "IC30, inhibition of rhIL-1β-induced cytokine release, NHLF donor 35234", "setting": "[8]", "value": 0.09, "unit": "nM"}, {"measurement": "IC50, inhibition of rhIL-1β-induced cytokine release, NHDF donor 29114", "setting": "[8]", "value": 0.174, "unit": "nM"}, {"measurement": "IC50, inhibition of rhIL-1β-induced cytokine release, NHLF donor 34325", "setting": "[8]", "value": 0.293, "unit": "nM"}, {"measurement": "IC50, inhibition of rhIL-1β-induced cytokine release, NHLF donor 35234", "setting": "[8]", "value": 0.207, "unit": "nM"}, {"measurement": "IC90, inhibition of rhIL-1β-induced cytokine release, NHDF donor 29114", "setting": "[8]", "value": 1.07, "unit": "nM"}, {"measurement": "IC90, inhibition of rhIL-1β-induced cytokine release, NHLF donor 34325", "setting": "[8]", "value": 2.55, "unit": "nM"}, {"measurement": "IC90, inhibition of rhIL-1β-induced cytokine release, NHLF donor 35234", "setting": "[8]", "value": 1.8, "unit": "nM"}, {"measurement": "IC30, inhibition of rhIL-1β-induced CXCL5 release, human whole blood (5 donors)", "setting": "[9]", "value": 1.33, "unit": "nM"}, {"measurement": "IC30, inhibition of rhIL-1β-induced G-CSF release, human whole blood (5 donors)", "setting": "[9]", "value": 0.704, "unit": "nM"}, {"measurement": "IC30, inhibition of rhIL-1β-induced IL-6 release, human whole blood (5 donors)", "setting": "[9]", "value": 0.872, "unit": "nM"}, {"measurement": "IC50, inhibition of rhIL-1β-induced CXCL5 release, human whole blood (5 donors)", "setting": "[9]", "value": 2.86, "unit": "nM"}, {"measurement": "IC50, inhibition of rhIL-1β-induced G-CSF release, human whole blood (5 donors)", "setting": "[9]", "value": 1.31, "unit": "nM"}, {"measurement": "IC50, inhibition of rhIL-1β-induced IL-6 release, human whole blood (5 donors)", "setting": "[9]", "value": 1.53, "unit": "nM"}, {"measurement": "IC90, inhibition of rhIL-1β-induced CXCL5 release, human whole blood (5 donors)", "setting": "[9]", "value": 20.8, "unit": "nM"}, {"measurement": "IC90, inhibition of rhIL-1β-induced G-CSF release, human whole blood (5 donors)", "setting": "[9]", "value": 6.58, "unit": "nM"}, {"measurement": "IC90, inhibition of rhIL-1β-induced IL-6 release, human whole blood (5 donors)", "setting": "[9]", "value": 6.56, "unit": "nM"}]}
